Experimental data from PMC3056349 (Neuron, 2011).

Target: PTPσ-CFP (protein tyrosine phosphatase receptor PTPσ expressed in COS cells) (UniProt Q13332 30-1948)
Experiment: cell-surface binding assay

Sequence of PTPσ-CFP (protein tyrosine phosphatase receptor PTPσ expressed in COS cells) (Q13332 30-1948): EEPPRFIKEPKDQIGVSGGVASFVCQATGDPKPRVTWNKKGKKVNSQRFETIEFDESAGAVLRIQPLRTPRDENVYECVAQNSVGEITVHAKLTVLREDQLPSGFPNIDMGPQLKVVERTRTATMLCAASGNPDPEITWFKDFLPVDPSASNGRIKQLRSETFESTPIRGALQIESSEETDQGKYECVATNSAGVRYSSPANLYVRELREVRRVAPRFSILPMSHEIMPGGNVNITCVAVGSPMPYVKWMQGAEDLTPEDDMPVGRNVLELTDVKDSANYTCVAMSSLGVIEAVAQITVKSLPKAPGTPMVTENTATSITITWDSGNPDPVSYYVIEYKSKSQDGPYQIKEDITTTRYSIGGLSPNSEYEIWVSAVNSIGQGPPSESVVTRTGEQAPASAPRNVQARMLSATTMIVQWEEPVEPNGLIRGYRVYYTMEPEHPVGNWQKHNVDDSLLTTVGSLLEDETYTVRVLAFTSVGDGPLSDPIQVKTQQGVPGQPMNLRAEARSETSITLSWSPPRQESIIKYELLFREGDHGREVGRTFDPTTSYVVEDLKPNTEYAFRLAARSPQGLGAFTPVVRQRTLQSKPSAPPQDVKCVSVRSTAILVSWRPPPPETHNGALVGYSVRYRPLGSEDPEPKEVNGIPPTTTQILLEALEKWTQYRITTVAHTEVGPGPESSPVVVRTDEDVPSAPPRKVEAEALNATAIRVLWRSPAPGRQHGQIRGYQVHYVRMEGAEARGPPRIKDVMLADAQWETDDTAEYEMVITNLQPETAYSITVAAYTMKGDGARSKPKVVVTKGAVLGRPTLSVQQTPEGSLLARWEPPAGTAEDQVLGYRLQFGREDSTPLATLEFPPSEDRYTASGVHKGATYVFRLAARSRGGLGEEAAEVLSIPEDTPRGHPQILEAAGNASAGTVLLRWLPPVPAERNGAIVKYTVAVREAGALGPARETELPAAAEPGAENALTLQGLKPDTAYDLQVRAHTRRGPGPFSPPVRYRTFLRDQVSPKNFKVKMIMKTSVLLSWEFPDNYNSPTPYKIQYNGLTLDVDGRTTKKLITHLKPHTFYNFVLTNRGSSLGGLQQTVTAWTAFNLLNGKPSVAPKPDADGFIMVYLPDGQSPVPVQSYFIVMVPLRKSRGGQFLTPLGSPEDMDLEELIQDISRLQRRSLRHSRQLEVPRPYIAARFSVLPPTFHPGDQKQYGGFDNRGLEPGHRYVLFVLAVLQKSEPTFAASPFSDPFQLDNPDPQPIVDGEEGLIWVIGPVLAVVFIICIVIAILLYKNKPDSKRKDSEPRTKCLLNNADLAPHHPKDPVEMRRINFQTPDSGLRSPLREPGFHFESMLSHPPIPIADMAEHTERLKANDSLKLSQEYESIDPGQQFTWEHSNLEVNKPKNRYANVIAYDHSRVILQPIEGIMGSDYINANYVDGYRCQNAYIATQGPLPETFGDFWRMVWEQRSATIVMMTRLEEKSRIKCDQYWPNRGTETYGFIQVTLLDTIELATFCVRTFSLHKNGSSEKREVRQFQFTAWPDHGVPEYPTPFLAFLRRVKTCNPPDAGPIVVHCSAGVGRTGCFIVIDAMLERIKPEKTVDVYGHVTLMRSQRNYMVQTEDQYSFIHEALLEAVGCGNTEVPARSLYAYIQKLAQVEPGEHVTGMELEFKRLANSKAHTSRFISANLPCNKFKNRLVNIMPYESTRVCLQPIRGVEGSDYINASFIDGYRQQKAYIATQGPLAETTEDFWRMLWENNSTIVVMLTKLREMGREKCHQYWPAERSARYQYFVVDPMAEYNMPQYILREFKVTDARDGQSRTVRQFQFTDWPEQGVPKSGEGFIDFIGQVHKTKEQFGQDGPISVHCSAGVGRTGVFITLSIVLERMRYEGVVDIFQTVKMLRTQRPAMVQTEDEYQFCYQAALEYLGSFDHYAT

- Kd: 9.3 nM
B1: TrkC-Fc (soluble purified TrkC ectodomain fused to human immunoglobulin Fc region) (Fc fusion, rat, UniProt Q03351 32-429, looked up)
chain: CPANCVCSKTEINCRRPDDGNLFPLLEGQDSGNSNGNASINITDISRNITSIHIENWRGLHTLNAVDMELYTGLQKLTIKNSGLRNIQPRAFAKNPHLRYINLSSNRLTTLSWQLFQTLSLRELRLEQNFFNCSCDIRWMQLWQEQGEARLDSQSLYCISADGSQLPLFRMNISQCDLPEISVSHVNLTVREGDNAVITCNGSGSPLPDVDWIVTGLQSINTHQTNLNWTNVHAINLTLVNVTSEDNGFTLTCIAENVVGMSNASVALTVYYPPRVVSLVEPEVRLEHCIEFVVRGNPTPTLHWLYNGQPLRESKIIHMDYYQEGEVSEGCLLFNKPTHYNNGNYTLIAKNALGTANQTINGHFLKEPFPESTDFFDFESDASPTPPITVTHKPEEDT
